This is an account of results in patent US20200164071A1 (GENSUN BIOPHARMA, published 2020).

Broadly, the EC50 (read off the curve) is the concentration needed to bring the measured effect to its halfway point. High values mean a less potent agent, low ones a more potent agent. As usually defined, the EC50 is the midpoint of the concentration-response curve. The low end stands for higher potency in that assay, the high end for lower potency in that assay. Broadly, the IC50 is the point on the concentration scale where inhibition reaches its midpoint. A lower IC50 goes with greater potency in that assay. As usually defined, the Kd is the free concentration of one partner at which half of the binding sites on the other are occupied at equilibrium, for simple one-to-one binding. Read a high Kd as lower affinity. As usually defined, the koff is the first-order rate constant of dissociation. A low value points to a long-lived complex. What is called kon is the second-order rate constant of association. A high value points to fast association.

Experiment [1] addresses T1, cyno TIGIT on CHO-K1 cells (cyno, UniProt A0A7N9I9V4 89-312).
T1 construct: whole, on cells; also called cyno-hu TIGIT
Description: flow cytometry, CHO-K1 cells expressing cyno TIGIT (binding assay of Example 5). The procedure: (§1) The mixtures were incubated at 4 C for 20 min and washed 3 times. The mixtures were stained with the secondary antibody, PE labeled F(ab′)2-Goat anti-human IgG Fc (Thermo H10104) at 4° C. for 20 min. Cells were washed and resuspended in 7AAD solution and fixed in 10% neutral buffered formalin solution for 15 minutes before analysis with the iQue Intellicyt system.
A general note: Flow cytometry measures light scatter and fluorescence of single cells or particles in a stream.

Experiment [2] has as its target T2, human TIGIT on CHO-K1 cells (human, UniProt Q495A1 23-244).
T2 construct: also called hu TIGIT; TIGIT+CHO-K1 cells
T2 sequence: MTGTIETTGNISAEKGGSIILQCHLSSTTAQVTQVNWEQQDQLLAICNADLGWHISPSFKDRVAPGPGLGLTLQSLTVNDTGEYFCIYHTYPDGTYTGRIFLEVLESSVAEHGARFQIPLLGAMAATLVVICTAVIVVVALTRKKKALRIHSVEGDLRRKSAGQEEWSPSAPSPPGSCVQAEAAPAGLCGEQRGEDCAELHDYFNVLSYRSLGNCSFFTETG
Briefly: flow cytometry, CHO-K1 cells expressing full-length human TIGIT, PE F(ab')2 goat anti-human IgG Fc (Example 5). The procedure: as §1

For experiment [3], the target named is T2, human TIGIT on CHO-K1 cells. Briefly: flow cytometry, CHO-K1 cells expressing human TIGIT (binding assay of Example 5). As for the experimental part: as §1
For experiment [4], the target named is T1, cyno TIGIT on CHO-K1 cells. Briefly: flow cytometry blocking assay of Example 4: biotinylated hPVR-mIg on cyno TIGIT CHO-K1 cells.
The target in experiment [5] is T2, human TIGIT on CHO-K1 cells. Description: flow cytometry blocking assay: biotinylated hPVR-mIg on human TIGIT CHO-K1 cells, PE streptavidin (Examples 4 and 6). As for the experimental part: (§2) The cells were washed 2 times before staining with PE streptavidin (BioLegend) for 20 min at 4 C. The cells were then washed, resuspended in 30 μl 7 AAD solution, and 35 μl of 10% neutral buffered formalin solution was added. The cells were then incubated for 15 min. Flow cytometry was performed and IC50 was calculated using iQue intellicyt system.

For experiment [6], the target named is T3, human TIGIT (antigen of Table 3) (human, UniProt Q495A1 23-141, limits assumed).
T3 construct: neither the method nor the antigen construct is described; limits and tags unknown; also called hu TIGIT
T3 sequence: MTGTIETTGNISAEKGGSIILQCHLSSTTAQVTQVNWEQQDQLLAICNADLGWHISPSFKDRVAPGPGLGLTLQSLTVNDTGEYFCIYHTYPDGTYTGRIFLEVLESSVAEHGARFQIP
Description: binding kinetics, method not described (Table 3, Binding Affinity).

Experiment [7] addresses T2, human TIGIT on CHO-K1 cells. Briefly: flow cytometry blocking assay of Example 4: biotinylated hPVR-mIg on human TIGIT CHO-K1 cells.
Experiment [8] shares this target. Briefly: flow cytometry competition with biotinylated hPVR-mIg on CHO-K1 cells expressing human TIGIT. The procedure:
as §2

In experiment [9] the target is T4, human PD-1 on CHO-K1 cells (human, UniProt Q15116 25-288).
T4 construct: also called Human PD-1 transfected CHO-K1 cells
T4 sequence (Q15116 25-288): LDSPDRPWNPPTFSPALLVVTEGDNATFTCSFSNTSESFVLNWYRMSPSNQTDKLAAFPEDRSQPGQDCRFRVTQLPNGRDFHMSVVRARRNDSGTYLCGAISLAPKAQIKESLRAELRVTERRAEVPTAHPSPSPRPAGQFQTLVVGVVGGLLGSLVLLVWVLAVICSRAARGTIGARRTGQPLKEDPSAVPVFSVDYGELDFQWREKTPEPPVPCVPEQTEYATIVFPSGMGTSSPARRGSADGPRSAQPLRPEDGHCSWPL
Briefly: flow cytometry blocking assay: FITC human PD-L1-Fc on human PD-1 CHO-K1 cells (Example 11); axis: % of PD-L1 Binding Signal; first of two legend entries printed PD-05 Human. The procedure:
(§3) Human or Cyno PD-1 transfected CHO-K1 cells were washed with FACS buffer (0.5% BSA 2 mM EDTA in PBS) and re-suspended at a concentration of 10⁶ cells/ml. […] The cells were then washed and re-suspended in 30 μl 7 AAD solution; 35 μl 10% neutral buffered formalin solution was then added and incubated for 15 mins. before analysis using the iQue intellicyt system.

Experiment [10] concerns the target T4, human PD-1 on CHO-K1 cells. Description: flow cytometry blocking assay: FITC human PD-L1-Fc on human PD-1 CHO-K1 cells (Example 11; the legend paragraph 42 calls it binding to hu PD-L1). As for the experimental part: as §3
For experiment [11], the target named is T5, cyno PD-1 on CHO-K1 cells (cyno).
T5 construct: whole, on cells; also called cyno hu PD-1; Cyno PD-1 transfected CHO-K1 cells
Briefly: flow cytometry blocking assay of Example 11, PD-L1 on cyno PD-1 CHO-K1 cells; cyno taken from the legend paragraph 42 ('cyno-hu'), while Example 11 speaks of human PD-1 and human PD-L1 for this figure. As for the experimental part: as §3

Experiment [12] concerns the target T6, His tagged human PD-1 protein (human, UniProt Q15116 25-170, limits assumed).
T6 construct: also called huPD-1-His; not shown: His tag
Description: bio-layer interferometry (Octet RED96), antibody on anti-human IgG capture biosensors, His tagged human PD-1 as analyte, 1:1 global fit (Example 12). As for the experimental part:
[…] was carried out using the Octet RED96 system (ForteBio Octet RED96 System) to characterize the binding kinetics of antibodies against His tagged human PD-1 protein. 20 nM of antibody was loaded onto the anti-human IgG capture biosensors. Association of analyte (His tagged human PD-1 protein) was observed by placing the biosensors in wells containing 2 or 3 fold serial dilution of analytes (72 nM being the highest concentration) for 5 mins. Dissociation was measured after transfer of the biosensors into kinetic buffer alone and monitoring of the interferometry signal for 10 minutes. The observed on and off rates (Ka and Kd) were fit using a 1:1 binding global fit model comprising at least 5 concentrations tested, and the equilibrium binding constant KD was then calculated.
(In BLI a coated tip is dipped into the sample, and binding shifts an interference pattern.)

Experiment [13] has as its target T4, human PD-1 on CHO-K1 cells. Description: flow cytometry blocking assay: FITC human PD-L1-Fc on human PD-1 CHO-K1 cells (Examples 11 and 15); title: PD-1 Blocking Activity Screening. As for the experimental part: as §3
The target in experiment [14] is T4, human PD-1 on CHO-K1 cells. Briefly: flow cytometry blocking assay: FITC human PD-L1-Fc on human PD-1 CHO-K1 cells (Example 11). As for the experimental part: as §3
The target of experiment [15] is T4, human PD-1 on CHO-K1 cells. Briefly: flow cytometry blocking assay: FITC human PD-L1-Fc on human PD-1 CHO-K1 cells (Examples 11 and 16); title: Blocking PD-L1 binding to PD-1. As for the experimental part:
as §3

Experiment [16] addresses T2, human TIGIT on CHO-K1 cells. Briefly: flow cytometry competition assay: PVR (CD155) signal on human TIGIT CHO-K1 cells against titrated antibody (Example 3 names human PVR-human Fc, m15, with PE anti-human Fc). The source says:
Cells were then washed with FACS buffer and then re-suspended in 7-amino-actinomycin D (7AAD) solution before analysis with iQue intellicyt system.

T6 sequence (Q15116 25-170 limits assumed): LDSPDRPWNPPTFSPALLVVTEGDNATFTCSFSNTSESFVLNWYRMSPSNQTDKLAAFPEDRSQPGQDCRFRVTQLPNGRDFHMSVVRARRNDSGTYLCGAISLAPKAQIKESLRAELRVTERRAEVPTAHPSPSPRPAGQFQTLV
T1 sequence (A0A7N9I9V4 entry or part of it): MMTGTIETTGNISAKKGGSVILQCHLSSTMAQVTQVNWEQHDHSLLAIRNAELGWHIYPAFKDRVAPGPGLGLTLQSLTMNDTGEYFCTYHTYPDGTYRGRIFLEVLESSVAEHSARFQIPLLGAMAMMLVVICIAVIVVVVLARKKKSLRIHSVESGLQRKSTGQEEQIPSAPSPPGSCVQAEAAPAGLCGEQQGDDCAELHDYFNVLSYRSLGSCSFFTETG

B1: T-08 (antibody, V domains shown)
VH: QVQLVQSGSELKKPGASVKVSCKASGYTFTNYGMNWVRQAPGQGLEWMGWINTYTGEPTYADDFKGRFVFSLDTSVSTAYLQISSLKAEDTAVYYCARAPPYGYDVRFAYWGQGTLVTVSS
VL: DVVMTQSPLSLPVTLGQPASISCRSSQSIVHSNGNTYLEWFQQRPGQSPRVLIYKVSDRFSGVPDRFSGSGSGTDFTLKISRVEAEDVGVYYCFQGSHVPWTFGRGTKLEIK
notes: Anti-human TIGIT monoclonal antibody from mouse hybridoma; also called anti-hu TIGIT mab T-08; anti-TIGIT (T-08)
For the molecule B1, the “EC50 (read off the curve)” value in experiment [1] was about 1 nM; in [3], about 0.5 nM. Moreover, in experiment [2], the concentration for a half-maximal effect (EC50) turned out to be 0.4 nM. Besides, the “IC50 (read off the curve)” value in [4] and in experiment [7] was about 1 nM each time. Also, the figures for the concentration for half-maximal inhibition (IC50) in [5] and in experiment [8] were 1.2 nM and 0.4 to 1.67 nM, respectively. Moreover, in experiment [6], binding was characterised by a dissociation constant (Kd) of 5.44 nM. For the same molecule, the koff in experiment [6] was determined as 0.00376 s⁻¹. In addition, in [6], the on-rate (kon) was 690000 M⁻¹ s⁻¹.

B2: PD-05 (antibody, V domains shown)
VH: QVQLVQSGAEVKKPGASVKVSCKASGYTFTTYYIYWVRQAPGQGLEWMGGINPGNGGTNFNEKFKIRVTMTRDTSISTAYMELSSLRSEDTAVYYCARRYHGYDGGLDYWGQGTLVTVSS
VL: DIVLTQSPASLAVSPGQRATITCRASKSVSTSGFSYIHWYQQKPGQPPKLLIYLASNLESGVPARFSGSGSGTDFTLTINPVEANDTANYYCQHTWELPNTFGGGTKVEIK
notes: also called anti-PD-1 mab PD-05
Take B2: the IC50 was found to be 0.56 nM in experiment [9], 0.56 nM in experiment [10] and 1.6 nM in experiment [11].

B3: PD-01 mab (antibody, V domains shown)
VH: EVQLVESGGGLVQPGGSLRLSCAASGFTFSNFLMSWVRQAPGKGLEWVSTISGGGRDTYYVDSVKGRFTISRDNSKNTLYLQMNSLRAEDTAVYYCAKRTTYSMDYWGQGTSVTVSS
VL: DIQMTQSPSSVSASVGDRVTITCLASQTIGTWLAWYQQKPGKAPKLLIYAATSLADGVPSRFSGSGSGTDFTLTISSLQPEDFATYYCQQFYSIPWTFGGGTKLEIK
notes: also called anti-PD-1 (PD-01)
In experiment [12], B3 yielded a Kd of 2.2 nM, a koff of 0.000272 s⁻¹ and a kon of 126000 M⁻¹ s⁻¹. In experiment [13], the “IC50 (read off the curve)” value was about 1 nM. Moreover, the concentration for half-maximal inhibition (IC50) in experiment [14] is 2.28 nM. In experiment [15], this molecule had an IC50 of 1.5 nM.

B4: T-04 (antibody, V domains shown)
VH: EVQLVQSGAEVKKPGATVKISCKVSGYTFTDHTIHWVQQAPGKGLEWMGYIYPRDGSSKYNVKFKGRVTITADTSTDTAYMELSSLRSEDTAVYYCATGMLRWFAYWGQGTLVTVSS
VL: DIQMTQSPSSLSASVGDRVTITCKASQDVFTAVAWYQQKPGKAPKLLIYSASYRYTGVPSRFSGSGSGTDFTFTISSLQPEDIATYYCQQHYSIPLTFGAGTKLEIK
notes: Anti-human TIGIT monoclonal antibody from mouse hybridoma; also called anti-hu TIGIT mab T-04
As to B4, the “IC50 (read off the curve)” value in [16] is about 0.3 nM. The same molecule returned an EC50 in experiment [2] of 0.23 nM. Further, the “IC50 (read off the curve)” value in experiment [5] was about 0.4 nM. Also, in [6], the Kd is 0.67 nM, the koff is 0.000538 s⁻¹ and the kon was 809000 M⁻¹ s⁻¹. Further, the IC50 in experiment [8] fell in the range of 0.12 to 0.31 nM.
